# Measured values: the supplement of paper PMC9112550, “Optimization of the antimicrobial peptide Bac7 by deep mutational scanning” (BMC Biology, 2022)
# Tested on: Escherichia coli TOP10
# Test: shrunken log2 fold change of peptide-encoding DNA abundance (4.5 h post-induction vs induction); higher = less antimicrobial activity (less host growth inhibition)
# Settings: time post-induction: 4.5 h; library: site-saturation at positions 5, 18, 19, 20
# 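Further: peptides expressed intracellularly from a pBAD plasmid library in pooled LB shake-flask culture, induced with 0.3% L-arabinose, DNA abundance read by NGS, three biological replicates, DESeq2 with apeglm shrinkage.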
row,Sequence,shrunken log2 fold change
1,RRIRQRPPRLPRPRPRPLPPPRP,1.09
2,RRIRARPPRLPRPRPRPWKDPRP,-0.0732
3,RRIRDRPPRLPRPRPRPWEPPRP,-1.35
4,RRIRERPPRLPRPRPRPMFPPRP,-0.475
5,RRIRDRPPRLPRPRPRPKMKPRP,-0.42
6,RRIRLRPPRLPRPRPRPFPSPRP,-0.173
7,RRIRLRPPRLPRPRPRPPGLPRP,0.149
8,RRIRHRPPRLPRPRPRPINVPRP,-1.14
9,RRIRKRPPRLPRPRPRPIFEPRP,0.381
10,RRIRWRPPRLPRPRPRPDPSPRP,-0.0349
11,RRIRFRPPRLPRPRPRPPAAPRP,1.32
12,RRIRSRPPRLPRPRPRPCVCPRP,0.0568
13,RRIRPRPPRLPRPRPRPIWNPRP,-0.282
14,RRIRVRPPRLPRPRPRPCVKPRP,-0.657
15,RRIRGRPPRLPRPRPRPEWHPRP,0.386
16,RRIRSRPPRLPRPRPRPMQSPRP,-0.00143
17,RRIRPRPPRLPRPRPRPLFKPRP,-0.348
18,RRIRMRPPRLPRPRPRPKPRPRP,1.63
19,RRIRIRPPRLPRPRPRPNALPRP,-0.245
20,RRIRTRPPRLPRPRPRPKDWPRP,0.358
21,RRIRDRPPRLPRPRPRPHKWPRP,-0.202
22,RRIRCRPPRLPRPRPRPNQMPRP,-0.447
23,RRIRERPPRLPRPRPRPWECPRP,-0.0135
24,RRIRSRPPRLPRPRPRPPCNPRP,-0.21
25,RRIRIRPPRLPRPRPRPYIHPRP,-1.3

row,Sequence,shrunken log2 fold change
1,RRIRCRPPRLPRPRPRPGVYPRP,-0.0723
2,RRIRVRPPRLPRPRPRPMIEPRP,-0.255
3,RRIRYRPPRLPRPRPRPQHQPRP,-0.304
4,RRIRIRPPRLPRPRPRPIHHPRP,-0.65
5,RRIRQRPPRLPRPRPRPKHQPRP,-0.386
6,RRIRERPPRLPRPRPRPFRFPRP,-0.185
7,RRIRHRPPRLPRPRPRPSIDPRP,-0.617
8,RRIRDRPPRLPRPRPRPAVGPRP,0.148
9,RRIRGRPPRLPRPRPRPLCMPRP,0.605
10,RRIRHRPPRLPRPRPRPIRVPRP,-0.361
11,RRIRDRPPRLPRPRPRPKNAPRP,-0.0796
12,RRIRERPPRLPRPRPRPNLNPRP,-0.58
13,RRIRVRPPRLPRPRPRPVCQPRP,0.0508
14,RRIRGRPPRLPRPRPRPPDNPRP,0.795
15,RRIRIRPPRLPRPRPRPRMKPRP,-0.0587
16,RRIRCRPPRLPRPRPRPFVGPRP,-0.315
17,RRIRARPPRLPRPRPRPPHQPRP,0.952
18,RRIRQRPPRLPRPRPRPMPDPRP,-0.0292
19,RRIRIRPPRLPRPRPRPYCDPRP,-0.0269
20,RRIRVRPPRLPRPRPRPCFPPRP,0.228
21,RRIRGRPPRLPRPRPRPDDLPRP,0.0487
22,RRIRTRPPRLPRPRPRPMLNPRP,-0.253
23,RRIRCRPPRLPRPRPRPLHIPRP,-0.335
24,RRIRVRPPRLPRPRPRPPYFPRP,0.0499
25,RRIRPRPPRLPRPRPRPWVEPRP,0.17

row,Sequence,shrunken log2 fold change
1,RRIRIRPPRLPRPRPRPRHAPRP,0.128
2,RRIRIRPPRLPRPRPRPDLDPRP,-3.99e-05
3,RRIRTRPPRLPRPRPRPGGQPRP,0.585
4,RRIRHRPPRLPRPRPRPGMMPRP,0.00873
5,RRIRSRPPRLPRPRPRPFESPRP,-0.258
6,RRIRSRPPRLPRPRPRPTVKPRP,-0.188
7,RRIRSRPPRLPRPRPRPPKFPRP,-0.479
8,RRIRIRPPRLPRPRPRPVFVPRP,-0.397
9,RRIRLRPPRLPRPRPRPHRAPRP,-0.0697
10,RRIRWRPPRLPRPRPRPVVGPRP,0.738
11,RRIRTRPPRLPRPRPRPDYGPRP,0.00355
12,RRIRMRPPRLPRPRPRPAANPRP,-0.00188
13,RRIRDRPPRLPRPRPRPKETPRP,-0.0231
14,RRIRTRPPRLPRPRPRPEHIPRP,-0.223
15,RRIRVRPPRLPRPRPRPYNQPRP,-0.844
16,RRIRYRPPRLPRPRPRPFYHPRP,-0.635
17,RRIRERPPRLPRPRPRPISYPRP,-0.0746
18,RRIRFRPPRLPRPRPRPLQQPRP,-0.0115
19,RRIRQRPPRLPRPRPRPPMYPRP,-0.269
20,RRIRPRPPRLPRPRPRPGLCPRP,0.399
21,RRIRRRPPRLPRPRPRPGEVPRP,1.28
22,RRIRHRPPRLPRPRPRPQAHPRP,-0.0538
23,RRIRFRPPRLPRPRPRPKAHPRP,-0.0835
24,RRIRDRPPRLPRPRPRPMIRPRP,-0.0188
25,RRIRHRPPRLPRPRPRPHVRPRP,-0.0157
